From paper doi:10.1101/495473v2

How the values were obtained:
Experiment in all cases: purified protein
Conditions in all cases: 5 mM MgCl2, 200 mM Tricine-NaOH pH 7.4, 37 °C
purified protein [1] = substrate: C[C@H](OP(=O)(O)O)C(=O)O
purified protein [2] = substrate: O=P(O)(O)OC(CO)CO
purified protein [3] = substrate: O=C(O)COP(=O)(O)O

B1: PbPGP (Plasmodium berghei ANKA) (protein)
chain: MSLIVSEASQNNYFKDSENSYNSFMKEWKIEKRVNVKDLYQNFEVFFFDCDGVLWRGDTVINGAIEVINKLISDNKKVYFITNNSTKSRDTLLGKFHKLGFTCVKKEHIICTSYAIAKYFHSKEEYKSRKKKIYVIGEKGICDELDALNLVWLGSYKDNDKKVIIQDEGEIQIDNNIGAVVVAIDFNINYYKIQYAQLCINGLDAEFIVSNKDPLANFTSNQQWAGTGSIVASIEQVSFKKPKVLGKPNLFMIESVLKSLNIDLSKVVMIGDRLDTDIFFAQNCKIKSILVSTGVTDANVFLNHNNLNIKPDYFMKSILEFL
Work on B1 yielded a Km (purified protein [1]) of 4773 ± 574 µM, a kcat (purified protein [1]) of 67.34 ± 8.31 s⁻¹ and a Km (purified protein [2]) of 2110 ± 11 µM. It also gave a kcat (purified protein [2]) of 10.18 ± 0.08 s⁻¹, a Km (purified protein [3]) of 2526 ± 494 µM and a kcat (purified protein [3]) of 75.15 ± 7.86 s⁻¹.
